Laboratory results reported in publication PMC5760668, “Structure function and engineering of multifunctional non-heme iron dependent oxygenases in fungal meroterpenoid biosynthesis” (Nature Communications, 2018).

T1: PrhA-(6P-A298), N-terminal truncated and C-terminal chimeric PrhA (Penicillium brasilianum, UniProt A0A1E1FFL0, E295I/A296S/P297S/S298A)
T1 construct: crystal construct PrhA-(6P-A298): residues from Pro6, C-terminal Glu295-Val301 replaced by AusE Ile295-Ser296-Ser297-Ala298, in pET28a, EDTA-treated; homodimer; Asp276′ of the other chain contacts substrate
T1 sequence (A0A1E1FFL0 6-298 E295I/A296S/P297S/S298A): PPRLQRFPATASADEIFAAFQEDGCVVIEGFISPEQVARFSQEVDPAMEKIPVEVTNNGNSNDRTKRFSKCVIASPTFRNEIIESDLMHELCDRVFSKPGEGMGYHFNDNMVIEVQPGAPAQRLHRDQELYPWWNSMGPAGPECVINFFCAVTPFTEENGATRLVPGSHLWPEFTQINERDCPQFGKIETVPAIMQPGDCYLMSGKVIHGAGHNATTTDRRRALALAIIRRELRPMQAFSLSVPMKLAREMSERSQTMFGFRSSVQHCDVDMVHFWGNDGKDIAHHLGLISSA

T2: AusE-(6P-A298) (Aspergillus nidulans, UniProt Q5AR34)
T2 construct: crystal construct, N-terminal truncated 6P-A298 in pET28a, E. coli, EDTA-treated, Mn(II) reconstituted; homodimer
T2 sequence (Q5AR34 6-298): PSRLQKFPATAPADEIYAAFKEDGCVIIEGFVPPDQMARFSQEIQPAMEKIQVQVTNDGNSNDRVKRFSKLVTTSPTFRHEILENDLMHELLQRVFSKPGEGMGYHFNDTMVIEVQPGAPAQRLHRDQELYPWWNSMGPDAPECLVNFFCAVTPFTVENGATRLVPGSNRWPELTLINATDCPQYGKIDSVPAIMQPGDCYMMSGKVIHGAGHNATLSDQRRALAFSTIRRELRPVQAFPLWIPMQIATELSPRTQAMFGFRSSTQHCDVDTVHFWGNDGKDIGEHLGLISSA

B1: N-terminal truncated and C-terminal chimeric PrhA-(6P-A298) (enzyme)
chain: T1 sequence (A0A1E1FFL0 6-298 E295I/A296S/P297S/S298A)
notes: PrhA, Fe(II)/αKG-dependent oxygenase of paraherquonin biosynthesis, Penicillium brasilianum; from P6 up to the residue before Glu295 (Glu295-Val301 were replaced); AusE, Aspergillus nidulans, residues Ile295-Ser296-Ser297-Ala298, put in place of PrhA Glu295-Val301; Crystallised as apo form; Fe(II), αKG and preaustinoid A1 (5) were soaked in; also called PrhA-Fe; PrhA-Fe/αKG; source: E. coli …
B2: N-terminal truncated AusE-(6P-A298) (enzyme, Aspergillus nidulans, UniProt Q5AR34 6-298, looked up)
chain: T2 sequence (Q5AR34 6-298)
notes: AusE, Fe(II)/αKG-dependent oxygenase of austinol biosynthesis, Aspergillus nidulans; residues P6-A298, cloned NdeI/BamHI into pET28a; Crystallised with Mn(II), and with Mn(II) and αKG; also called AusE-Mn; AusE-Mn/αKG; source: E. coli Rosetta 2(DE3)pLysS, purified (HisTrap HP, HiTrap Q HP, EDTA treatment, Superdex 200)
B3: wild-type PrhA (PrhA-(M1-V301)) (enzyme, Penicillium brasilianum, UniProt A0A1E1FFL0 1-301, looked up)
chain: MAPMIPPRLQRFPATASADEIFAAFQEDGCVVIEGFISPEQVARFSQEVDPAMEKIPVEVTNNGNSNDRTKRFSKCVIASPTFRNEIIESDLMHELCDRVFSKPGEGMGYHFNDNMVIEVQPGAPAQRLHRDQELYPWWNSMGPAGPECVINFFCAVTPFTEENGATRLVPGSHLWPEFTQINERDCPQFGKIETVPAIMQPGDCYLMSGKVIHGAGHNATTTDRRRALALAIIRRELRPMQAFSLSVPMKLAREMSERSQTMFGFRSSVQHCDVDMVHFWGNDGKDIAHHLGLEAPSVHV
notes: PrhA, Fe(II)/αKG-dependent oxygenase, Penicillium brasilianum; It may have been the chimeric 6-298 crystallisation construct; also called recombinant PrhA; source: E. coli Rosetta 2(DE3)pLysS, purified (HisTrap HP, HiTrap Q HP, Superdex 200)
B4: wild-type AusE (AusE-(M1-A298)) (enzyme, Aspergillus nidulans, UniProt Q5AR34 1-298, looked up)
chain: MGSATPSRLQKFPATAPADEIYAAFKEDGCVIIEGFVPPDQMARFSQEIQPAMEKIQVQVTNDGNSNDRVKRFSKLVTTSPTFRHEILENDLMHELLQRVFSKPGEGMGYHFNDTMVIEVQPGAPAQRLHRDQELYPWWNSMGPDAPECLVNFFCAVTPFTVENGATRLVPGSNRWPELTLINATDCPQYGKIDSVPAIMQPGDCYMMSGKVIHGAGHNATLSDQRRALAFSTIRRELRPVQAFPLWIPMQIATELSPRTQAMFGFRSSTQHCDVDTVHFWGNDGKDIGEHLGLISSA
notes: AusE, Fe(II)/αKG-dependent oxygenase, Aspergillus nidulans; It may have been the 6-298 crystallisation construct; also called recombinant AusE; source: E. coli Rosetta 2(DE3)pLysS, purified (HisTrap HP, HiTrap Q HP, Superdex 200)

Assays:
[1] = target: T1, PrhA-(6P-A298), N-terminal truncated and C-terminal chimeric PrhA; experiment: X-ray crystal structure; assay type: binding; conditions: Fe(II); crystal soaked with αKG; co-substrate, bidentate chelation
[2] = target: T2, AusE-(6P-A298); experiment: X-ray crystal structure; assay type: binding; conditions: Mn(II), anaerobic; co-substrate
[3] = target: the molecule itself; experiment: crystal structure; anaerobic vapor diffusion at 20 °C; AusE with MnCl2 (and αKG); PrhA and mutants crystallised as apo form and soaked with FeSO4, αKG and substrate; homodimer in the crystal
[4] = target: the molecule itself; experiment: dynamic light scattering; purified enzymes; monomodal distribution, polydispersity 18.2 and 21.1%; predicted masses compared with the calculated 35.1 kDa

Molecule | stoichiometry N [3] | stoichiometry N [4] | also measured
O=C(O)CCC(=O)C(=O)O [α-ketoglutarate] |  |  | X-ray crystal structure [1]: in complex with Fe(II) and αKG (PrhA-Fe/αKG); X-ray crystal structure [2]: X-ray crystal structures of AusE complexed with Mn(II) and αKG (AusE-Mn/αKG)
B1 | 2 |  | 
B2 | 2 |  | 
B3 |  | 2 | 
B4 |  | 2 | 
